The values below are quoted from earlier work in PMC10578080.

What is called Kd is a measure of binding affinity in units of concentration.

The data set has as its target neuronal ternary SNARE complex (Rattus norvegicus) (UniProt P32851).
Chain of UniProt P32851 (P32851 whole entry, chain 1 of 3): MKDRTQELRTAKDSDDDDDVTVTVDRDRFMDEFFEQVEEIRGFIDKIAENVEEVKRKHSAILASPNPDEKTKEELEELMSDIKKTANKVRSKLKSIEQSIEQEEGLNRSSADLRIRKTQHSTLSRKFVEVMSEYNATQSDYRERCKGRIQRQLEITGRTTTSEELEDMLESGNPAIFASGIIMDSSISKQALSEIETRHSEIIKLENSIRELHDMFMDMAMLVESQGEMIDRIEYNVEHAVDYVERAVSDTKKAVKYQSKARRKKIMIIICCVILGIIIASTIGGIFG
Chain of UniProt P32851 (B2RAU4 whole entry, chain 2 of 3, further chain): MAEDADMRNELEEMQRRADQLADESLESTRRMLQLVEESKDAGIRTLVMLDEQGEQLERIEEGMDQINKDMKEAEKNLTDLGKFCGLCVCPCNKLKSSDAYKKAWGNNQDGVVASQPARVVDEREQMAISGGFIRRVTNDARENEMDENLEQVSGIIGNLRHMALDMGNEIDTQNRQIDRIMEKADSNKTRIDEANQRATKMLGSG
Chain of UniProt P32851 (P63044 2-116, chain 3 of 3, further chain): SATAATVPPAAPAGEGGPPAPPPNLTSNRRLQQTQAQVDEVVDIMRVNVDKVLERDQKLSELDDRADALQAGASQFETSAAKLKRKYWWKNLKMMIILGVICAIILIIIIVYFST

Consider “Cpx1 central domain (from UniProt P63041)”, for which the equilibrium dissociation constant (Kd) was 0.01 µM.
